Blank lines part the entries; values can stand above or below the substance they belong to.
What was measured:
[1] = biological target: human fibrinogen (human) (UniProt P02671)
[2] = biological target: bovine fibrinogen (bovine)
[3] = biological target: bovine thrombin (bovine) (UniProt P00735)
[4] = biological target: bovine thrombin (bovine) (UniProt P00735); remark: listed apart in the source
[5] = biological target: bovine thrombin (bovine) (UniProt P00735); remark: listed apart in the source

human urine derived thrombin-binding substance obtained using a recombinant DNA technique (r-UTM) (receptor), sequence (chain): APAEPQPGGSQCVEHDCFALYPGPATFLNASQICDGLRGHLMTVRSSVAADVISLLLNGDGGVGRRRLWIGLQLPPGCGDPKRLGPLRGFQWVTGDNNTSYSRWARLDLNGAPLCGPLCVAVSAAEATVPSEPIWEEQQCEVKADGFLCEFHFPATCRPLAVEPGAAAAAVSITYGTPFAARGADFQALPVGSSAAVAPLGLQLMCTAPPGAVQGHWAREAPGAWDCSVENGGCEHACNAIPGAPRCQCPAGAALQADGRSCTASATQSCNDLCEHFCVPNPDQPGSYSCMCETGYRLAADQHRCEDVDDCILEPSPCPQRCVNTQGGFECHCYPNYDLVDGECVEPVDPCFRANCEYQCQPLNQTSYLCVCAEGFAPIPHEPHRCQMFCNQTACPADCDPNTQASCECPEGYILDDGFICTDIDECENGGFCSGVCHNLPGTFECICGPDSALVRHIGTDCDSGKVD

clotting time, control, ATIII (-) [1]: 43.3 s | Coagulation time (sec), control [2]: 28.1 s
Substance: bovine thrombin (from UniProt P00735) (enzyme)

clotting time, control, ATIII (+) [3]: 49.5 s
Substance: human antithrombin III (from UniProt P01008)

clotting time, ATIII (+) (human antithrombin III 250 µg/ml) [3]: 80.8 s | clotting time, ATIII (-) [3]: 61.8 s | IC50 (time required for the coagulation) [4]: 80 nM | Coagulation time [5]: 29.6 s
Substance: human urine derived thrombin-binding substance obtained using a recombinant DNA technique (r-UTM) (receptor)

— patent publication US5354664
